Measured values from US20110256153A1 (IMMUNOGEN, published 2011).

T1: hCD37-M3 (human/murine chimera, UniProt P11049 1-281)
T1 construct: stably expressed on 300-19 cells; also called hCD37-M3 variant
T1 chain: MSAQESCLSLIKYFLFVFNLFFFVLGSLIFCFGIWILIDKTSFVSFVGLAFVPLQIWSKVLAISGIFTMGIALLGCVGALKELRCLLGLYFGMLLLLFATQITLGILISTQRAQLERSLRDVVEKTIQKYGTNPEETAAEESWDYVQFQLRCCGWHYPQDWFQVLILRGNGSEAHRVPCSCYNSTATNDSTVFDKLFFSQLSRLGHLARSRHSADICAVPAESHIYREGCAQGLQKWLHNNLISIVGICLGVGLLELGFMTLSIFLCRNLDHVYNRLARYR

T2: macaque CD37 (macaque, UniProt P11049 1-277 (human entry))
T2 construct: Expressed on 300-19 cells transfected with pSRa-CD37mac (300-19/CD37mac cells); also called macaca CD37; macaque derived CD37 antigen
T2 chain: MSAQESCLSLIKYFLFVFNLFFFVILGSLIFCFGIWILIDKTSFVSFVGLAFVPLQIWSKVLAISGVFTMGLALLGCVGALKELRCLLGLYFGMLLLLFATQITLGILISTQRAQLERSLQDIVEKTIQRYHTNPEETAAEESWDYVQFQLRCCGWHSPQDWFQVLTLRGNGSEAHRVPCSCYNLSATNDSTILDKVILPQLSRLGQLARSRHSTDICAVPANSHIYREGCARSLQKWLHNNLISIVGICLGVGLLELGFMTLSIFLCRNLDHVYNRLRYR

T3: hCD37-M45 (human/murine chimera, UniProt P11049 1-281)
T3 construct: stably expressed on 300-19 cells; also called hCD37-M45 variant
T3 chain: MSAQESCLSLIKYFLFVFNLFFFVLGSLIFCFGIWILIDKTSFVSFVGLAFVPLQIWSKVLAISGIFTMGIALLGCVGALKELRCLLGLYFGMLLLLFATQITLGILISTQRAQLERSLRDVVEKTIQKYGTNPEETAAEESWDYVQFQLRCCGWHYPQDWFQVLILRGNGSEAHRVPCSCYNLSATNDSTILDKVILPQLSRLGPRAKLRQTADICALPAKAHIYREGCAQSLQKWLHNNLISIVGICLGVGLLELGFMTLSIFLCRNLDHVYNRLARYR

T4: human CD37 (human, UniProt P11049 1-278)
T4 construct: Tetraspanin antigen; Expressed on 300-19 cells transfected with pSRa-CD37 (entire CDS) or endogenous on WSU-DLCL-2, BJAB and Ramos lymphoma cells; also called CD37 antigen; human CD37 wildtype
T4 sequence: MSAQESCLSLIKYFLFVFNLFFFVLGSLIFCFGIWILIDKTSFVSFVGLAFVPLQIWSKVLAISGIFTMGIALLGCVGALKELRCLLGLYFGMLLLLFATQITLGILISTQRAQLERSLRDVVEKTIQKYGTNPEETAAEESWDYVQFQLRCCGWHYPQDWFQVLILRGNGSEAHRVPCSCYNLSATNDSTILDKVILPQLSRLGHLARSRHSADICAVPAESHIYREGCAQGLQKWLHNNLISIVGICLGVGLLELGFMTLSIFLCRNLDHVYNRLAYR

T5: hCD37-M1 (human/murine chimera, UniProt P11049 1-281)
T5 construct: stably expressed on 300-19 cells; also called hCD37-M1 variant
T5 chain: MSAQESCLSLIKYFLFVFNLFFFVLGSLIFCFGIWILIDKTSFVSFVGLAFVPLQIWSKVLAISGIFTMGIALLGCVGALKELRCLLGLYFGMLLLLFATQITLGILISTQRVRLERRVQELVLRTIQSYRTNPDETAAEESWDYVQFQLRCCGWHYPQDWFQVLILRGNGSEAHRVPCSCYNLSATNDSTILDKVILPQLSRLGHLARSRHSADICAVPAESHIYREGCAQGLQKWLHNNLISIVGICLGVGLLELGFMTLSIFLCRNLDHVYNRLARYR


Legend:
[1] = target: T1, hCD37-M3; assay: flow cytometry, 300-19 cells expressing hCD37-M3, 1.5 µg/mL antibody
Method: (§1) Binding specificity was tested by flow cytometry using purified antibodies. […] All murine antibodies were incubated for 3 h with either CD37-expressing 300-19 cells or the non-transfected 300-19 cells (1×10⁵ cells per sample) in 100 μL FACS buffer (RPMI-1640 medium supplemented with 2% normal goat serum). Then, the cells were pelleted, washed, and incubated for 1 h with 100 μL of FITC-conjugated goat anti-mouse IgG-antibody (Jackson Laboratory, 6 μg/mL in FACS buffer). The cells were pelleted again, washed with FACS buffer and resuspended in 200 μL of PBS containing 1% formaldehyde. Samples were acquired using a FACSCalibur flow cytometer with the HTS multiwell sampler or a FACS array flow cytometer and analyzed using CellQuest Pro (all from BD Biosciences, San Diego, US).
(§2) Binding of various CD37 antibodies to cells expressing human CD37 wildtype and variants was analyzed by flow cytometry using 1.5 μg/mL of each antibody. The isolated antibodies of this invention were compared to commercially available CD37 antibody WR17, as well as the TRU-016 SMIP. […] Likewise, all antibodies tested bound the hCD37-M3 variant (FIG. 18B). In contrast, the isolated antibodies of this invention bound the hCD37-M1 variant, while TRU-016 and WR17 were unable to bind hCD37-M1 variant (FIG. 19A). The CD37-50 and CD37-51 antibodies and TRU-016 were also able to bind the hCD37-M45 variant. […] In contrast, the CD37-3, CD37-12, CD37-38, CD37-56 and CD37-57 antibodies require at least one of the AA residues in the hCD37-M45 variant that were changed to the corresponding murine AA residues for binding to the CD37 antigen.

[2] = target: T2, macaque CD37; assay: flow cytometry, 300-19/CD37mac cells
Method: as §1
The murine antibodies muCD37-3, muCD37-12, muCD37-38, […], muCD37-51, muCD37-56 and muCD37-57 were assayed for their ability to bind to 300-19/CD37mac cells expressing macaque CD37. Flow cytometry binding assays were carried out using secondary FITC-conjugated goat-anti-murine or goat-anti-human antibodies, analyzed as described in Example 2. Binding was compared to the previously described anti-CD37 antibody WR17 and the anti-CD37 SMIP TRU-016. […] In contrast, muCD37-3, muCD37-12, the previously described anti-CD37 antibody WR17 and the anti-CD37 SMIP TRU-016 are unable to bind the macaque derived CD37 antigen.

[3] = target: T3, hCD37-M45; assay: flow cytometry, 300-19 cells expressing hCD37-M45
Method: as §1, §2

[4] = target: T4, human CD37; assay: flow cytometry titration on Ramos cells; apparent Kd
Method: as §1
The chimeric antibodies chCD37-3 and chCD37-12 were assayed for their binding affinity to Ramos cells in comparison to their murine counterparts. Flow cytometry binding assays using Ramos cells and muCD37-3, chCD37-3, muCD37-12 and chCD37-12 antibodies were carried out and analyzed as described in Example 2 using secondary FITC-conjugated goat-anti-murine and -anti-human antibodies. FIG. 9A depicts the dose-response curves generated by non-linear regression for each antibody. The value for the apparent dissociation constant (Kd) of each antibody was calculated using GraphPad Prism v4 (GraphPad software, San Diego, Calif.).

[5] = target: T4, human CD37; assay: flow cytometry titration on WSU-DLCL-2 cells; EC50 taken as apparent Kd
Method: as §1
To verify that the antibodies can also bind to endogenously expressed CD37, binding experiments were performed with CD37-positive WSU-DLCL-2 lymphoma cells and the muCD37-3, muCD37-12, muCD37-8, muCD37-10 or muCD37-14 antibodies. WSU-DLCL-2 cells were incubated with varying concentrations of murine antibodies and processed as described above for flow cytometry analysis. Data analysis was performed using CellQuest Pro (BD Biosciences, San Diego, US) and for each sample the mean fluorescence intensity for FL1 (MFI) was exported and plotted against the antibody concentration in a semi-log plot (FIG. 3). […]

[6] = target: T5, hCD37-M1; assay: flow cytometry, 300-19 cells expressing hCD37-M1, 1.5 µg/mL antibody
Method: as §1, §2

[7] = target: T4, human CD37; assay: flow cytometry titration on BJAB cells; apparent Kd
How it was run: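 BJAB cells were incubated 3 h with titrated antibody in RPMI-1640 containing 2% goat serum, then 1 h with FITC anti-mouse or anti-human IgG, fixed in 1% formaldehyde and read by flow cytometry. Apparent Kd was derived by non-linear regression of the dose-response curves.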

[8] = target: T3, hCD37-M45; assay: flow cytometry, 300-19 cells expressing hCD37-M45, 1.5 µg/mL antibody
Method: as §1
Binding of various CD37 antibodies to cells expressing human CD37 wildtype and variants was analyzed by flow cytometry using 1.5 μg/mL of each antibody. The isolated antibodies of this invention were compared to commercially available CD37 antibody WR17, as well as the TRU-016 SMIP. […] Likewise, all antibodies tested bound the hCD37-M3 variant (FIG. 18B). In contrast, the isolated antibodies of this invention bound the hCD37-M1 variant, while TRU-016 and WR17 were unable to bind hCD37-M1 variant (FIG. 19A). The CD37-50 and CD37-51 antibodies and TRU-016 were also able to bind the hCD37-M45 variant. […]

binding result [1] | binding result [2] | binding result [3] | Kd [4] [nM] | Kd [5] [nM] | binding result [6] | Kd [7] [nM] | binding result [8] | Binder
binds | no binding | no binding (tested: 1.5 µg/mL) | 0.8 | 1.1 | binds | – | – | muCD37-12 (antibody, mouse IgG2a, kappa, Murine hybridoma antibody) heavy: QIQLVQSGPELKKPGETVKISCKASGYTFTKYGMNWVKQAQGKGLKWMGWINTNTGESRNAEEFKGRFAFSLETSASTAYLQINNLKYEDTATYFCGRGTVVADWGQGTTLTVSSAKTTAPSVYPLAPVCGDTTGSSVTLGCLVKGYFPEPVTLTWNSGSLSSGVHTFPAVLQSDLYTLSSSVTVTSSTWPSQSITCNVAHPASSTKVDKKIEPRGPTIKPCPPCKCPAPNLLGGPSVFIFPPKIKDVLMISLSPIVTCVVVDVSEDDPDVQISWFVNNVEVHTAQTQTHREDYNSTLRVVSALPIQHQDWMSGKEFKCKVNNKDLPAPIERTISKPKGSVRAPQVYVLPPPEEEMTKKQVTLTCMVTDFMPEDIYVEWTNNGKTELNYKNTEPVLDSDGSYFMYSKLRVEKKNWVERNSYSCSVVHEGLHNHHTTKSFSRTPGK light: DIVLTQSPASLAVSLGQRATISCRASQSVSTSSYSYLYWFQQKPGQPPKLLIKYASNLASGVPARFSGSGSGTDFTLNIHPVEEEDTATYYCQHSWEIPYTFGGGTKLEIKRADAAPTVSIFPPSSEQLTSGGASVVCFLNNFYPKDINVKWKIDGSERQNGVLNSWTDQDSKDSTYSMSSTLTLTKDEYERHNSYTCEATHKTSTSPIVKSFNRNEC
binds | – | – | – | – | binds | 0.6 | binds | muCD37-50 (antibody, mouse IgG2a, kappa, V domains shown, Murine hybridoma antibody) VH: DVQLQESGPDLLKPSQSLSLTCTVTGYSITSGFAWHWIRQFPGNKLEWMGYILYSGSTVYSPSLKSRISITRDTSKNHFFLQLNSVTTEDTATYYCARGYYGYGAWFAYWGQGTLVTVSA VL: QIVLTQSPAIMSASPGEKVTMTCSATSSVTYMHWYQQKSGTSPKRWIYDTSKLPYGVPGRFSGSGSGTSYSLTISSMEAEDAATYYCQQWSDNPPTFGSGTKLEIKR
binds | binds | – | – | – | binds | 0.6 | binds | muCD37-51 (antibody, mouse IgG2a, kappa, V domains shown, Murine hybridoma antibody) VH: DVQLQESGPDLLKPSQSLSLTCTVTGYSISSGFAWHWIRQFPGNKLEWMGYIHYSGSTNYSPSLKSRISITRDSSKNQFFLQLNSVTTEDTATYYCARGYYGFGAWFVYWGQGTLVTVSA VL: QIVLTQSPAIMSASPGEKVTMTCSATSSVTYMHWYQQKSGTSPKRWIYDTSKLASGVPARFSGSGSGTSYSLTISNMEAEDAATYYCQQWSSNPPTFGSGTKLEIKR
